Results as given in doi:10.1101/2025.04.25.650662 (bioRxiv, 2025).

Tests used:
[1] = target: Leucine-rich repeat containing, G protein-coupled receptor 5 (LGR5), human, on HEK293T cells (HEK293-LGR5-DeltaC) (human) (UniProt O75473); assay: whole-cell binding assay
[2] = target: Leucine-rich repeat containing, G protein-coupled receptor 4 (LGR4), human, on HEK293T cells (human, UniProt Q9BXB1 25-951); assay: whole-cell binding assay

Leucine-rich repeat containing, G protein-coupled receptor 5 (LGR5), human, on HEK293T cells (HEK293-LGR5-DeltaC) (human), sequence (O75473 22-907, stated change not applied): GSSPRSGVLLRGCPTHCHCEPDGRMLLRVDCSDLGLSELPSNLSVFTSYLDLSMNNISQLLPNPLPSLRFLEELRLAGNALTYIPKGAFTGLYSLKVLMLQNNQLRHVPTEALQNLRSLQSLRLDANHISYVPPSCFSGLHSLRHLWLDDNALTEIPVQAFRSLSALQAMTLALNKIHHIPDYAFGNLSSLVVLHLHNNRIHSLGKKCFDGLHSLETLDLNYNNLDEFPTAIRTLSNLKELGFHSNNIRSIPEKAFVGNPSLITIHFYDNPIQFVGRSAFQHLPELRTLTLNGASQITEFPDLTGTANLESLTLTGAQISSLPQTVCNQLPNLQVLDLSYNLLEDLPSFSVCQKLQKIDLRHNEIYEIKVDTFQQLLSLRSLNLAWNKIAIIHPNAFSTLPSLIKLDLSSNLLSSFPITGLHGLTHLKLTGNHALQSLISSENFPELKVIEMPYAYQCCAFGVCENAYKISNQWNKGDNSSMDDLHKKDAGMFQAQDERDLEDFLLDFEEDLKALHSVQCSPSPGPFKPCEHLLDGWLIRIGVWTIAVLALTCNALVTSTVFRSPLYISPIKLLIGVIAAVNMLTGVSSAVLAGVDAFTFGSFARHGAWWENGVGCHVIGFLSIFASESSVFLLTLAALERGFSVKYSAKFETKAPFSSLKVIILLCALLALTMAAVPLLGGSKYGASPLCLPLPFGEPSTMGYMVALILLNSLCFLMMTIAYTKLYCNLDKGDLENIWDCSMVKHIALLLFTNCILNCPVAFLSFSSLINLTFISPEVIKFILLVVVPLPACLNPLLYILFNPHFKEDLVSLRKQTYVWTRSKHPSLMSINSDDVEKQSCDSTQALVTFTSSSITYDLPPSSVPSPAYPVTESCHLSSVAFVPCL

Kd [1]: 0.3 nM
Kd [2]: 0.2 nM
B1: R232, RSPO2 furin domain M68T/Q70R double mutant fused to human IgG1-Fc (Fc fusion)
chain: CKGCLSCSKDNGCSRCQQKLFFFLRREGTRRYGECLHSCPSGYYGHRAPDMNRCARCRIENCDSCFSKDFCTKCKVGFYLHRGRCFDECPDGFAPLEETMEC
